Test results: article PMC11202772

Target: eel luteotropin/chorionic gonadotropin hormone receptor (eel LH/CGR) (eel)

Row | EC50 of cAMP production (HTRF) in CHO-K1 cells transiently expressing eel LH/CGR; ligand 0-1500 ng/mL, 30 min, room temperature [µg/mL] | Substance
1 | 0.0478 | tethered eel LH mutant (tethered rec-eel LH-M) with the eLH/CG β-subunit CTP linker between the β-subunit and the α-subunit (from UniProt P08751 135-169) (ligand)
2 | 0.139 | wild-type tethered eel luteinizing hormone (tethered rec-eel LH-wt) (ligand)
